# Test results published in article PMC10315472.
# Legend:
# Experiment in all cases: SPR
# [1] = target: wild-type SARS-CoV-2 Spike receptor-binding domain (SARS-CoV-2) (UniProt P0DTC2)
# AMSIN (actinomyces) = target: AMSIN (actinomyces)
# [2] = target: emorisin (Emergomyces orientalis)
substance,measurement,setting,value
(ΔGFG)AMSIN (peptide),Kd,[1],119 nM
wild-type SARS-CoV-2 Spike receptor-binding domain (from UniProt P0DTC2 319-527) (domain or fragment),Kd,AMSIN (actinomyces),193 nM
same,Kd,[2],7.6 nM
